Reference: paper PMC11358308 (2024)

T1: human B-cell maturation antigen (BCMA), extracellular domain (human, UniProt Q02223 1-54)
T1 chain: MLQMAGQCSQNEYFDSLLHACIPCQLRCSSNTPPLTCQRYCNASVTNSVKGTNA


Columns and labels:
cynomolgus BCMA = cynomolgus BCMA (cynomolgus monkey); assay: SPR
[1] = biological target: T1, human B-cell maturation antigen (BCMA), …; assay: SPR

Sequence of cynomolgus BCMA (cynomolgus monkey) (chain, as listed by the source): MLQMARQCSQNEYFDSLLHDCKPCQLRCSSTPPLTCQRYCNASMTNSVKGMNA

Binder	Kd (cynomolgus BCMA) [nM]	Kd [1] [nM]
J22.9-xi, chimaeric mouse/human IgG (antibody, V domains shown) VH: QVQLQQSGGGLVQPGGSLKLSCAASGIDFSRYWMSWVRRAPGKGLEWIGEINPDSSTINYAPSLKDKFIISRDNAKNTLYLQMSKVRSEDTALYYCASLYYDYGDAMDYWGQGTSVTVSS VL: DIVMTQSQRFMTTSVGDRVSVTCKASQSVDSNVAWYQQKPRQSPKALIFSASLRFSGVPARFTGSGSGTDFTLTISNLQSEDLAEYFCQQYNNYPLTFGAGTKLELK	2.7	–
J22.9-FSY, humanized and CDR-optimized IgG (antibody, V domains shown) VH: EVQLVESGGGLVQPGGSLRLSCAASGFTFSRYWFSWVRQAPGKGLVWVGEINPSSSTINYAPSLKDKFTISRDNAKNTLYLQMNSLRAEDTAVYYCASLYYDYGDAYDYWGQGTLVTVSS VL: EIVMTQSPATLSVSPGERATLSCKASQSVESNVAWYQQKPGQAPRALIYSASLRFSGIPARFSGSGSGTEFTLTISSLQSEDFAVYYCQQYNNYPLTFGAGTKLELK	20	2.2
J22.9-H, humanized IgG (all humanizing substitutions in VH and VL except A46L in VL) (antibody, V domains shown) VH: EVQLVESGGGLVQPGGSLRLSCAASGFTFSRYWMSWVRQAPGKGLVWVGEINPDSSTINYAPSLKDKFTISRDNAKNTLYLQMNSLRAEDTAVYYCASLYYDYGDAMDYWGQGTLVTVSS VL: EIVMTQSPATLSVSPGERATLSCKASQSVDSNVAWYQQKPGQAPRALIYSASLRFSGIPARFSGSGSGTEFTLTISSLQSEDFAVYYCQQYNNYPLTFGAGTKLELK	200	–
J22.9-ISY, humanized and CDR-optimized IgG (antibody, V domains shown) VH: EVQLVESGGGLVQPGGSLRLSCAASGFTFSRYWISWVRQAPGKGLVWVGEINPSSSTINYAPSLKDKFTISRDNAKNTLYLQMNSLRAEDTAVYYCASLYYDYGDAYDYWGQGTLVTVSS VL: EIVMTQSPATLSVSPGERATLSCKASQSVESNVAWYQQKPGQAPRALIYSASLRFSGIPARFSGSGSGTEFTLTISSLQSEDFAVYYCQQYNNYPLTFGAGTKLELK	17	2
